From PMC9482650, “Quantitative fragmentomics allow affinity mapping of interactomes” (Nature Communications, 2022)

Experiments:
Assay in all cases: holdup assay
Set-up in all cases: key: below the threshold = too weak to quantify, mostly under pKd 3.1 to 4
[1] = target: MAST1, Q9Y2H9
[2] = target: T1, GRIP1_7, Q9Y3R0
T1 sequence (Q9Y3R0 999-1096, limits assumed, looked up): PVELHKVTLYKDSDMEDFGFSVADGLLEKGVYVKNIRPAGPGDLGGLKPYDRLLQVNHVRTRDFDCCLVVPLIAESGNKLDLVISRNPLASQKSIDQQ

[3] = target: Inadl_6, Q8NI35
Inadl_6, Q8NI35, sequence (Q8NI35 1058-1167): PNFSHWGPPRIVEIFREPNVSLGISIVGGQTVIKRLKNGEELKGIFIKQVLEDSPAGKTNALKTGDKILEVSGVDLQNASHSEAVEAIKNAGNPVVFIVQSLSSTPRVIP

[4] = target: T2, GRIP1_3, Q9Y3R0
T2 sequence (Q9Y3R0 247-346, limits assumed, looked up): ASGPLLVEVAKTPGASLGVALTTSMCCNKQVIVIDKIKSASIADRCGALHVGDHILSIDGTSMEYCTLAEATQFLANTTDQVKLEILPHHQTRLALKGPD

[5] = target: MAGI2_5, Q86UL8
MAGI2_5, Q86UL8, sequence (Q86UL8 915-1017): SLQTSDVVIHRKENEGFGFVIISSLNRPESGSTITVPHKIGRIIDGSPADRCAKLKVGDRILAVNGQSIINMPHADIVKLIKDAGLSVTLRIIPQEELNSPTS

[6] = target: PTPN3, P26045
PTPN3, P26045, sequence (P26045 505-587): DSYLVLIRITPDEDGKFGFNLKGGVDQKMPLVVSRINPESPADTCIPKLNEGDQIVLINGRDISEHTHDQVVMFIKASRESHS

[7] = target: DLG1_2, Q12959
[8] = target: MAGI1_2, Q96QZ7
MAGI1_2, Q96QZ7, sequence (Q96QZ7 456-580): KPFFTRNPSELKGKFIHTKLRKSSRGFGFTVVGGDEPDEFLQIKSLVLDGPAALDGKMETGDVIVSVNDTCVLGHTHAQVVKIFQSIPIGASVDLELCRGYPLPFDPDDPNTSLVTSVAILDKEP

[9] = target: DLG4_3, P78352
DLG4_3, P78352, sequence (P78352 306-403): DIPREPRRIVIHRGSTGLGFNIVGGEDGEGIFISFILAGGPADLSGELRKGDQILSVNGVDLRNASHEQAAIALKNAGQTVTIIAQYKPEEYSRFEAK

[10] = target: SCRIB_3, Q14160
SCRIB_3, Q14160, sequence (Q14160 999-1103): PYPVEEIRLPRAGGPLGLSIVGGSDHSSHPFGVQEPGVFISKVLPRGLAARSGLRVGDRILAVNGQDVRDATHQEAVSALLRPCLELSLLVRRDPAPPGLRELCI

[11] = target: T3, RHPN1, Q8TCX5
T3 sequence (Q8TCX5 508-602, limits assumed, looked up): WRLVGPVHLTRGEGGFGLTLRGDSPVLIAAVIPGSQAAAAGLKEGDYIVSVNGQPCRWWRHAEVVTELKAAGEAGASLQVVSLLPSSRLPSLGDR

[12] = target: MAGI2_3, Q86UL8
MAGI2_3, Q86UL8, sequence (Q86UL8 600-682): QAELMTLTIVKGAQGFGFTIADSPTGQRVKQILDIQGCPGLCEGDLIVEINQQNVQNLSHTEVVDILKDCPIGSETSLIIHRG

[13] = target: T4, LNX2_3, Q8N448
T4 sequence (Q8N448 463-564, limits assumed, looked up): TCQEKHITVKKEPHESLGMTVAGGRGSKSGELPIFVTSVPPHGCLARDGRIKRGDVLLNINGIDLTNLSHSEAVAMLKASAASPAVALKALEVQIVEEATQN

[14] = target: TJP2_1, Q9UDY2
TJP2_1, Q9UDY2, sequence (Q9UDY2 24-128): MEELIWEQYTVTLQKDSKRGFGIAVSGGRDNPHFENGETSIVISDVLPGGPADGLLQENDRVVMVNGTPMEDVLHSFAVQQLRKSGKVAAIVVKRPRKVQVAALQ

[15] = target: T5, DFNB31_3, Q9P202
T5 sequence (Q9P202 811-907, limits assumed, looked up): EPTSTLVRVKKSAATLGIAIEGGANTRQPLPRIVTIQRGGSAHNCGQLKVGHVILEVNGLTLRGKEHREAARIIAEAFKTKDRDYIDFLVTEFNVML

[16] = target: Inadl_10, Q8NI35
Inadl_10, Q8NI35, sequence (Q8NI35 1673-1763): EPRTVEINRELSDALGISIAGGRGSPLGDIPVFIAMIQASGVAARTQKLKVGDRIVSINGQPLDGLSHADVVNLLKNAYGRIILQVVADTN

[17] = target: T6, DVL3, Q92997
T6 sequence (Q92997 244-331, limits assumed, looked up): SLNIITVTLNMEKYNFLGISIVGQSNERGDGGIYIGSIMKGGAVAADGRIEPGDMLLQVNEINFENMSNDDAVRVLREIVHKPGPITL

[18] = target: T7, TIAM2, Q8IVF5
T7 sequence (Q8IVF5 885-986, limits assumed, looked up): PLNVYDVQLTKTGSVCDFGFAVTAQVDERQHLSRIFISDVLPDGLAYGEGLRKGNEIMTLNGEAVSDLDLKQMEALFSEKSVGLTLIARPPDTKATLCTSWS

[19] = target: T8, CARD11, Q9BXL7
T8 sequence (Q9BXL7 662-765, limits assumed, looked up): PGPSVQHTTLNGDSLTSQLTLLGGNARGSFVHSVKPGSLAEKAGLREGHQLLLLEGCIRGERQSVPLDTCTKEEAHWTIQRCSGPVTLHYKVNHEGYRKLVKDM

[20] = target: T9, DFNB31_1, Q9P202
T9 sequence (Q9P202 135-233, limits assumed, looked up): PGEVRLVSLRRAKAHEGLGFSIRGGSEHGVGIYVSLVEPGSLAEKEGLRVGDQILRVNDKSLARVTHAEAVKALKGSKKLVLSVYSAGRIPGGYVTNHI

[21] = target: GRID2IP_2, A4D2P6
GRID2IP_2, A4D2P6, sequence (A4D2P6 272-370): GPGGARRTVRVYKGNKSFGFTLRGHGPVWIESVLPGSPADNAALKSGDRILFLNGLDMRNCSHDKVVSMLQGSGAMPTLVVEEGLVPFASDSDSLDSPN

[22] = target: T10, PCLO, Q9Y6V0
T10 sequence (Q9Y6V0 4491-4600, limits assumed, looked up): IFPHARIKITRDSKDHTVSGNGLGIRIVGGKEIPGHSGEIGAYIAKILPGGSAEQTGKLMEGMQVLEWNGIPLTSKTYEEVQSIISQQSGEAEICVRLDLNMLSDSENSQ

[23] = target: FRMPD3, Q5JV73
FRMPD3, Q5JV73, sequence (Q5JV73 12-100): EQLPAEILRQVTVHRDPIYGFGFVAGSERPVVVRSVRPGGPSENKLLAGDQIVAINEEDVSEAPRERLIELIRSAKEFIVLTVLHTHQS

[24] = target: DLG1_1, Q12959
[25] = target: T11, DLG3_3, Q92796
T11 sequence (Q92796 374-475, limits assumed, looked up): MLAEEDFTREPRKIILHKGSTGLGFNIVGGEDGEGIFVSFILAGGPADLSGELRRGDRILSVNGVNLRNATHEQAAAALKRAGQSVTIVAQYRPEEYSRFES

[26] = target: NHERF2_2, Q15599
NHERF2_2, Q15599, sequence (Q15599 142-238): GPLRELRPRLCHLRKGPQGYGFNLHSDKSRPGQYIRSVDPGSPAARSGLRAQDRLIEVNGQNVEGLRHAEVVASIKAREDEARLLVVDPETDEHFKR

[27] = target: CASK, O14936
CASK, O14936, sequence (O14936 487-570): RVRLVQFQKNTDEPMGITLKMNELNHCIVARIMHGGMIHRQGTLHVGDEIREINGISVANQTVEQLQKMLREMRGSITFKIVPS

[28] = plain residues with an end cap or a label only (N-terminal biotin on a linker: ttds)
[29] = plain residues with an end cap or a label only (N-terminal biotin on a linker: ado-ado)

MAST1, Q9Y2H9, sequence (Q9Y2H9 962-1065): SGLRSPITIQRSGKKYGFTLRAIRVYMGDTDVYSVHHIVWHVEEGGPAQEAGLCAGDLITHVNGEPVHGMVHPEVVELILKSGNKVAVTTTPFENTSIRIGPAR

B1: AGMAT, Q9BSE5 (peptide)
chain: LCALPKVTTV
- pKd [1, 28]: 3.88
- pKd [2, 28]: below the threshold
- pKd [3, 28]: 3.88
- pKd [4, 28]: below the threshold
- pKd [5, 28]: 3.63
- pKd [6, 28]: 4.4
- pKd [7, 28]: 5.87
- pKd [8, 28]: 4.1
- pKd [9, 28]: 4.23
- pKd [10, 28]: 4.24
- pKd [11, 28]: 4.24
- pKd [12, 28]: 4.4
- pKd [13, 28]: below the threshold
- pKd [14, 28]: 3.91
- pKd [15, 28]: 3.69
- pKd [16, 28]: below the threshold
- pKd [17, 28]: below the threshold
- pKd [18, 28]: below the threshold
- pKd [19, 28]: below the threshold
- pKd [20, 28]: below the threshold
- pKd [21, 28]: 4.01
- pKd [22, 28]: below the threshold
- pKd [23, 28]: below the threshold
- pKd [24, 28]: 4.97
- pKd [25, 28]: 4.47
- pKd [26, 28]: below the threshold
- pKd [27, 28]: below the threshold

B2: PRKCA, P17252 (peptide)
chain: FVHPILQSAV
- pKd [1, 29]: 4.23
- pKd [2, 29]: below the threshold
- pKd [3, 29]: below the threshold
- pKd [4, 29]: below the threshold
- pKd [5, 29]: 4.73
- pKd [6, 29]: 4.59
- pKd [7, 29]: 4.52
- pKd [8, 29]: 3.73
- pKd [9, 29]: 3.88
- pKd [10, 29]: 4.3
- pKd [11, 29]: 4.18
- pKd [12, 29]: 3.83
- pKd [13, 29]: below the threshold
- pKd [14, 29]: below the threshold
- pKd [15, 29]: 3.57
- pKd [16, 29]: below the threshold
- pKd [17, 29]: below the threshold
- pKd [18, 29]: below the threshold
- pKd [19, 29]: below the threshold
- pKd [20, 29]: 4.29
- pKd [21, 29]: 4.36
- pKd [22, 29]: below the threshold
- pKd [23, 29]: below the threshold
- pKd [24, 29]: 3.81
- pKd [25, 29]: 3.57
- pKd [26, 29]: below the threshold
- pKd [27, 29]: below the threshold

B3: SLC23A1, Q9UHI7 (peptide)
chain: TETASVCTKV
- pKd [1, 29]: 4.85
- pKd [2, 29]: below the threshold
- pKd [3, 29]: below the threshold
- pKd [4, 29]: below the threshold
- pKd [5, 29]: 4.46
- pKd [6, 29]: 3.97
- pKd [7, 29]: 4.4
- pKd [8, 29]: below the threshold
- pKd [9, 29]: below the threshold
- pKd [10, 29]: 3.59
- pKd [11, 29]: 4.38
- pKd [12, 29]: 4.16
- pKd [13, 29]: below the threshold
- pKd [14, 29]: 3.72
- pKd [15, 29]: below the threshold
- pKd [16, 29]: 3.78
- pKd [17, 29]: below the threshold
- pKd [18, 29]: below the threshold
- pKd [19, 29]: below the threshold
- pKd [20, 29]: 4.18
- pKd [21, 29]: 3.98
- pKd [22, 29]: below the threshold
- pKd [23, 29]: below the threshold
- pKd [24, 29]: 3.84
- pKd [25, 29]: below the threshold
- pKd [26, 29]: 4.16
- pKd [27, 29]: below the threshold
